# ± gives the half width of the 95% confidence interval.
# Experiments:
# [1] = folding stability dG unfold (combined trypsin and chymotrypsin); higher = more stable
# Method: (§1)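 Folding stability of de novo designed mini-proteins (<80 aa, no Cys; designed by TrROS, TrMRF, ProteinMPNN and the joint model) was measured by cDNA display proteolysis with trypsin and chymotrypsin. Each protease was used at 11 concentrations in a threefold dilution series plus a no-protease condition. K50 was inferred by Bayesian fitting of sequencing counts, and dG unfold was derived against a sequence-predicted unfolded-state K50 (Tsuboyama et al. method). Sequences shown include variable-length N-terminal GS-type padding (SAGGSAGG...) inside a display construct carrying a PA tag. Rows were kept only if the AF2 dimer inter-PAE was >15, to exclude likely homo-oligomers.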
# [2] = folding stability dG unfold from chymotrypsin proteolysis; higher = more stable
# Method: as §1
Sequence,folding stability dG unfold [1] [kcal/mol],folding stability dG unfold [2] [kcal/mol]
KDFGITFKSPETIEEIAKKLGPNVVPTDIKKDPKGYVYAKIPTPDGKETDIVIPADKYSYEEAVKFAKEAES [r1_279_TrMRF],-0.232 ± 0.13,0.228 ± 0.16
MKITVTITSLGDKYTMTAEIELPDGTVETITKEFDSPEEAKKYIEKLVKELPPGLVEIEEIKFNPPDGTADS [r1_169_JUSTAS],> 6,4.94 ± 0.6
MTEKEIKEKAEEIAKKIAEEKGTEIKSAKIGGYVNVPVKVKEKLDENGKPVFEFEGKKVKVKVEVELKKKKS [r1_91_TrMRF],< -1,0.567 ± 0.33
SADPADVDVPLPVVGTAPALTSAPPGARLELVRLPDLGALARVDDGSVVALTVVVNDDGEVLAVAVEPAPSA [r9_1195_TrMRF],0.252 ± 0.066,0.894 ± 0.028
SADPALEAEARARARAEARARGVERLEFELTREVTRESLVRFPGGELREVVERREVRYRVEVEVPPEAASAG [r14_232_JUSTAS],0.366 ± 0.099,0.963 ± 0.077
SADWLSVPFELLEEKPPPADKPLPEGSSAEVVVEDPLRPGEPIKLEVFYFPEKGILILRYEGKEIEIKVGSA [r9_243_JUSTAS],–,0.673 ± 0.49
SAEKVTLTITVKMTEEELKEIAEKVGMKVEITVEKEEDGLYRVTLTFETPEEAEKAREALEKAGYKVEPSAG [r14_745_TrROS_Hall],4.6 ± 0.16,4.57 ± 0.14
SAGDKYRIKMTNPNGKKIEFEIPPNGYIKVRIRNPNNEHEMTIPIPPGETIEEALDNFPPYKISEIEPVSAG [r5_259_TrROS],0.328 ± 0.082,0.795 ± 0.1
SAGEPNKIKVKVKIRMWMPRKDPDGQQAEPHPMPMTFEYKAPWEDAKNIIDSMPPGMQIDKIDKIEPLSAGG [r19_114_TrROS],0.109 ± 0.29,0.226 ± 0.3
SAGESTLELTETSFPDGTTARVTTTRYPGLVRREATVTLPDGTVERLSAEVTLDEDEEVVTTSRSPLPSAGG [r19_385_JUSTAS],-0.666 ± 0.45,-0.247 ± 0.13
SAGGAPAAGDVVETETLRLERDEPDTITLTRLRTVEVVLPDGRVLTRTESETVRLEATDEEAVELAESSAGG [r13_544_TrMRF],0.397 ± 0.14,0.883 ± 0.22
SAGGDPALLLPVERKVTIEYTDEDGKKFTVGDVTVLPSPEILVKIPGTGETIRVPPSVVKKVEEVPESAGGS [r8_410_JUSTAS],< -1,-0.455 ± 0.18
SAGGDYDYEKDPNKYRVKERDKNGKILGEKEVEVKPPPIVIDGLPEEDLQEFQDKFPNIPITINPGAISAGG [r13_235_TrROS],< -1,-0.271 ± 0.5
SAGGEDFTIRTRSPNGEEQKFPFKVDNVEIEPENNHYSIHIKDGKKLTIPPGGIDDIEPDDIKDWIKDSAGG [r13_925_TrROS],-0.373 ± 0.21,-0.0875 ± 0.29
SAGGEELVIEFDSLEDALSAIYPRPDLDKVTLVVPGEGVPVVIPVTVTPPDLGVLGRSAEDRPVPLLGSAGG [r13_183_TrMRF],< -1,-0.825 ± 0.2
SAGGEIKIVVSAEELLRKEGKLSEEQRKKLEEALEEAKKLAEEGKEVKVEVEVVPPKPELKPEDKEKKSAGG [r13_731_TrROS_Hall],< -1,0.214 ± 0.086
SAGGEITIVIEGMSEEEREKALEEVRNKIKELKEKHPEKKITIVVDTPEAKKVAEELKKEGYEVEILSAGGS [r16_450_TrROS_Hall],2.86 ± 0.43,2.06 ± 0.15
SAGGGENAPKPIVEPKLVSTFLIDVEPDTYTPEEIAELFKEATGYEIEEVEVEELPDDNTVLVTVVAGSAGG [r13_457_TrMRF],0.0888 ± 0.22,0.472 ± 0.24
SAGGGLARELFEAENLPVVVEEEERDGKPVLRLVVDAGDKPLVFESDGEDVERAVREAARELGLPGLSAGGS [r8_226_TrMRF],0.337 ± 0.15,0.674 ± 0.085
SAGGGMPLEELKDIPENLPPGARVRLRFPETGEEGVYVLREDGGYTVEVPGGVVEAPEDTEVTEIVPSAGGS [r8_162_TrMRF],-0.192 ± 0.17,0.414 ± 0.13
SAGGGMPVPEVEVELLEEREVPGGRVTLGRAKTPDAWETLTTEYDPATGRRRTWRETPEGVTPYAEEGSAGG [r13_445_JUSTAS],< -1,-0.567 ± 0.65
SAGGGNPPVLKIELTKTYHPPDGTKVELYRVEHPVEPREIYIVKTYPDDGAEEVKIVKEEELKEALKSAGGS [r8_421_JUSTAS],< -1,0.771 ± 0.36
SAGGGPGSVSPQPFEEDYTLPDPGEKIRVKVTAYTLPDGSVVERAVSPEPEREFVFTRDGETVTVTPESAGG [r13_117_JUSTAS],0.116 ± 0.12,0.612 ± 0.088
SAGGGRMIKLTFKSGETKTIPLSSDYPDAKVEVSEKDDKLYITVTYPNGEKITYEFPLSEVESIEILSAGGS [r16_658_JUSTAS],4.7 ± 0.1,4.526 ± 0.042

Sequence,folding stability dG unfold [1] [kcal/mol],folding stability dG unfold [2] [kcal/mol]
SAGGGSSSSSIATETFTKEVEVPTEDGKLKKVLVTTTVSRPISLEPKTGKKYSLSTTVTTTTVSPEELSAGG [r13_312_JUSTAS],< -1,-0.461 ± 0.58
SAGGGSSVTYDPATGEVTVTLHPVDPHPGRLRSRTLPLPAPGSPEEVRERIRALVEAEPAWSTDLTAASAGG [r13_284_JUSTAS],0.423 ± 0.18,0.892 ± 0.12
SAGGGSTVVTTTEPAAAVRARVEAEARARGVALDVDVTVEPTPEGPVVTFDVRVDPGAPAVPAANRVSAGGS [r16_262_JUSTAS],-0.629 ± 0.25,0.0214 ± 0.23
SAGGGTVVDPGPRVVTITVRPPDGKPRTITLPLPDATPEEIRARLEAVAAALPEAGATVDVLDIRPLPSAGG [r13_29_JUSTAS],0.397 ± 0.064,0.941 ± 0.024
SAGGIKELQEALREGNLPEIIKELKKRGYENVKIQPNPDEGTIEIEIERKDPEDGKPEEEELTIPLEPSAGG [r13_359_TrROS],-0.271 ± 0.21,0.184 ± 0.084
SAGGIRLEIPPNWTPEEAKEQAEELANFFAKKGPMEVEDIEYKRDEKDGNPMIVGEIRDPKNGKEWTISAGG [r13_669_TrROS],-0.754 ± 0.68,-0.127 ± 0.3
SAGGKITIDVNYNPEENNFRIKITWPNGKEKELPIPMEGMPAEDMRREAREFAQNLNPDGLKEVEIEPSAGG [r13_267_TrROS],0.285 ± 0.43,0.369 ± 0.21
SAGGKITIEKKEDGTYTITINGKKFTFKFKPGAKVEIKIEKKKDGTYTITITVTNKDGSKKTFKIKLSAGGS [r16_231_TrROS_Hall],4.87 ± 0.47,4.85 ± 0.26
SAGGLSVSSVSTGSDKITVTVTGSGSPVATVEIPPGLPNTEVTATVLPDGSVRVELKTGNTPRTIEVPLSAG [r5_533_JUSTAS],-0.783 ± 0.28,-0.445 ± 0.14
SAGGLTLSTFESDEDVKPEWDPNKPVKVKVKTLTTTEPVPNRPHTVTTTTTLRENEEGTTPFTGTDTSAGGS [r16_300_JUSTAS],-0.11 ± 0.12,0.612 ± 0.061
SAGGMAEELAKLLKELFPDEEVEVEVKVEEKEVNGKKYLTITVTVRNKKTGKKIKEIKLVIELPEEESAGGS [r8_207_TrROS_Hall],> 6,4.23 ± 0.32
SAGGMESPVKAVDPSTGAERSFTIPREEAEALLAAGETTIEIPYSGGPMTVEITPLPDGTYAITGKAPSAGG [r13_171_JUSTAS],-0.16 ± 0.14,0.206 ± 0.24
SAGGMESSVLSVSTITRSAPPGSPLASTTATVTVTKTDGRTIVTVPATGVVYTVNPDGTVTADPVDPPSAGG [r13_721_JUSTAS],< -1,-0.515 ± 0.4
SAGGMIEKVEIREVDPETGEVTVTFHVPSEDLEKLGPIPFPGVKEVRFFPGEKTIEARMPLEDALKHSAGGS [r16_614_TrMRF],-0.0448 ± 0.19,0.538 ± 0.098
SAGGMKKIKVPDGSEIGSVNPKGGIDYVKVKLPGSGVLVEKAVPKGGKLVIPKNIPVELVEIKDYPLSAGGS [r16_123_TrMRF],-0.366 ± 0.2,-0.0202 ± 0.12
SAGGMKLTLTFTETSVLPDGTPVTTTSTTPLSPDVPVEEVAAALAETNPDVTVTVHEPSTGSTRTLRTSAGG [r13_663_JUSTAS],-0.351 ± 0.14,0.0497 ± 0.13
SAGGMKVTPLGTEPRPDGTTTTTYLSTLPNGTPVTTTTTTSTIPPPPVPPFSPEEVAAAAARRAAAASAGGS [r16_8_JUSTAS],< -1,0.249 ± 0.21
SAGGMLKVEVIEVPPDEVGPEKLRAEIKAKYPDVEVRFETLPDGTLRVTVEIPVPEEPSKPLPLEKKSAGGS [r16_535_JUSTAS],0.482 ± 0.3,0.743 ± 0.077
SAGGMMRTVTEPLSPEELEELRKEGWTVLGTEPGKVTVRVPVVPPLSPEEVAQARAAGLSEAEAAAARSAGG [r19_115_JUSTAS],0.0214 ± 0.28,0.587 ± 0.14
SAGGMPDRVRPFPFRAPVLRLDPPEPEEVEVVAFVFPDNRVLALARSPDPGRVLLAVDDGDRVLVADASAGG [r13_117_TrMRF],-0.477 ± 0.19,0.12 ± 0.15
SAGGSAGGSMYYLIKTKPPDGKEEYIIDPLPPGGSIEDIIPEDLEIEEIKPFKSKEEAEKYLKSAGGSAGGS [r20_18_JUSTAS],–,0.516 ± 0.46
SAGMTVEEAAKEAIEKIPPTTKEVEFEIDLGEKPLIVKIENIPDPETNKPIPKVIVEDPDEPKKVEFEISAG [r5_236_TrMRF],–,0.104 ± 0.13
SAPDMQITDVEISEVEKNPDGKRTIEIWMRMDNYTYKATFPADKDGKIKKLSMERDPENNWMRHKIEIDSAG [r14_189_TrROS],–,0.283 ± 0.34
SSPVVEAIEAEAAARGLPVEVSVSPDENGNPVVPVRVLTPEVLAAGEPRLAERVRPVTTDGRTVTVRVVASA [r9_489_JUSTAS],< -1,–

# From the supplement of paper PMC12764529
